According to the supplement of paper PMC9170038:

Test system: K4 kissing-loop RNA reporter
Assay: apparent KD of K4 kissing-loop reporter; higher = weaker reporter binding
Details: Eterna round: R107
Method: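 RNA-MaP round R107: designed RNA switches with theophylline, tryptophan, arginine or FMN aptamers are transcribed on-chip within common flanks. They are titrated with a labelled K4 kissing-loop RNA reporter in RNA-MaP buffer (100 mM Tris pH 7.5, 80 mM KCl, 4 mM MgCl2), without ligand or with the indicated ligand. Median apparent KD per design.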

[1] = input ligand: theophylline 20 uM
[2] = input ligand: tryptophan 2.4 mM
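Also: bound reporter read as fluorescence of individual clusters on recovered sequencing chips by microscopy, with normalized cluster intensities fitted with a binding model.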

| Sequence | apparent KD of K4 kissing-loop reporter (input ligand: FMN 200 uM) | apparent KD of K4 kissing-loop reporter (input ligand: arginine 13.2 mM) | apparent KD of K4 kissing-loop reporter (input ligand: none) | apparent KD of K4 kissing-loop reporter [1] | apparent KD of K4 kissing-loop reporter [2] |
| --- | --- | --- | --- | --- | --- |
| UGUGUUGUUUUGAUGUUUGGUGUAAGUUGGCAGGAUAUCGUAGAGGCGAGAAGGGCUUUUAUGCGUUAUGAGUGAUGUUUGUAGG [zrrzmullin] | 640 nM | 330 nM | 538 nM | 404 nM | 699 nM |
| GGAUUGCCAGUGAUGUUGGCAUAAUCUGAAGGAGCGCGUGAAAACGCAGGUAGGUCGCAGAACCUUGCCAACUGAUCGAAAGAUC [Ex Arginine A K4 30] | 145 nM | 165 nM | 155 nM | 185 nM | 150 nM |
| GCCUUAUAUCCAGCUACAGCUCUUUUUGGUCGAGGACCGGUACGGCCGCCACUCGAAUGAUAGUGAUGUUAUCGUUUUGUACUAA [JR_Nu_ExcTryptoA_Sub024] | 97.9 nM | 112 nM | 108 nM | 101 nM | 54.7 nM |
| CCAUUCUUUUACGAUACCAGUUUAAUAUAUUUAUUCAUAACCCUUGCCGAGUGAUGUUCGGACCCUUGGCAGCGUUUGCGAGAGG [lliltkmullin] | 303 nM | 308 nM | 392 nM | 404 nM | 239 nM |
| GUGAAGGAGAUGCAGUGAUGUUGCAGAGACUAGGAUAUCAGGAAACUGAGAAGGAGUCAAUUCCUUCAUUUAGACUGCAACAUAA [KL-SSFMN-A12] | 204 nM | 139 nM | 138 nM | 296 nM | 191 nM |
| CCCGGGUCGUCAGGAUAUGAGUGCAGUGAUGUUGCACGGGUCUUUGCAGGCCCUGGUGAGGCGUACUCAGAAGGGACGCCAGGUC [Atazazaed] | 250 nM | 124 nM | 145 nM | 130 nM | 133 nM |
| UAUACGCUAGUGAUGUUGGCGAAGACUGAAGGAGCGUGCGAGAGUACAGGUAGGUCGCAGUCAGACAGAUUGUACCUGUCUUAUG [Arg A SS t10] | 268 nM | 243 nM | 295 nM | 349 nM | 356 nM |
| AAGGCCACGAGAAGGAGCGUGUUGUGGAGUGAUGUUCCAUUGUAGACCUAAGGUCUACAAGCACAGGUAGGUCGCUCGUGGUCAA [Omei KL Arginine B SS A v5] | 131 nM | 120 nM | 132 nM | 112 nM | 119 nM |
| AUAAACUUGCAGUGAUGUUGCAAGUGAGACUAGGAUAUCAGGAAGCUGAGAAGGAGUCAUCUCCUUCAGACAUCACUAUGAAGGA [whbob_SS_FMNA__2th179] | 334 nM | 191 nM | 251 nM | 205 nM | 232 nM |
| UAAGAAUAAGUAGCAGUGAUGUUGCUACUGCGAGGACCGGUACGGCCGCCACUCGAGUCCUCGAAGCAUCACUGAACGAGGAAUA [whbob_SS_Tryp_A_m12] | 272 nM | 229 nM | 278 nM | 326 nM | 360 nM |
| AUUCUAUUGUGAAGGAGCGCGUAUAGUAGUGAUGUUACUAUAAUGAUAGAUACUUAAUUCUCGCAGGUAGGUCGCACAAUAUAUA [JR_Nu_ExcArginiB_Sub024] | 117 nM | 77.5 nM | 98.8 nM | 85 nM | 89.8 nM |
| GUCCCGAGUGAUGUUCGGGUCGUUCGGGAAGGAGCGCCCGCAAGGGCAGGUAGGUCGCCCGGAUCCCUCAGGUAACUGAGGGACC [#2 Same State - Arginine A Attempt #26 (HarryS)] | 632 nM | 428 nM | 491 nM | 467 nM | 465 nM |
| AUCUAGAUGCGAAGGAGCGCCUCAACGCGCUAUCUAUGGAGUGAUGUUCCAACGUAUGAGAGGCAGGUAGGUCGCGCAUCUAGAA [Arg B Ex t1] | 129 nM | 113 nM | 132 nM | 117 nM | 115 nM |
| CCCUCACGAGUGAUGUUCGUAGGGUACAGUCAGGAUAUCAUGCGGUUGAGAAGGGACAGAGAGGGCGGCGGCGGGUUGCUCAUCG [Rabele] | 150 nM | 125 nM | 153 nM | 166 nM | 124 nM |
| AGAACUGUCUGAGAUACCAGCCAUAGGAGUGAUGUUCCUAGCUCCACAAAGUGGAGCCAUGGCCCUUGGCAGCUCAGACAGUUCA [Omei KL Theo B SS A v8] | 219 nM | 191 nM | 219 nM | 133 nM | 206 nM |
| GGUAGCAUGGCGGCCGCCACUGCAAAGCAUAGCUACGGAAACGUAGCUACAGAGUGAUGUUCUGGCAGGACCGGGCCAUGCUACC | 675 nM | 487 nM | 692 nM | 683 nM | 330 nM |

| Sequence | apparent KD of K4 kissing-loop reporter (input ligand: FMN 200 uM) | apparent KD of K4 kissing-loop reporter (input ligand: arginine 13.2 mM) | apparent KD of K4 kissing-loop reporter (input ligand: none) | apparent KD of K4 kissing-loop reporter [1] | apparent KD of K4 kissing-loop reporter [2] |
| --- | --- | --- | --- | --- | --- |
| ACGUAUAUCAGAGGAUAUCGUAUUAAUAUUUUAUCUAUAUAUUAUAGCAGUGAUGUUGCAAUUAUUCGAGAAGGCUGAUUUACGA [JR_SSFMNB_Sub023] | 144 nM | 170 nM | 139 nM | 194 nM | 100 nM |
| AACUUAAUUUAUAAGCAGUGAUGUUGCUUACGAGGACCGGUACGGCCGCCACUCGAUCGCAUUUAUGUCUUCAAUUAAUUCAUUA [JR_ExcTryptoA_Sub016] | 178 nM | 196 nM | 197 nM | 237 nM | 195 nM |
| AAAUUGUUUAGAGGAUAUUCUUUAUUCGACAUAACCUUCUAUAAGGUGCAGUGAUGUUGCAAUAUAGGAGAAGGUUGAGUGAUAA [Exclusion FMN B Gf 15] | 135 nM | 118 nM | 136 nM | 121 nM | 113 nM |
| GGUCCGGGCUCGGCCGCCACUCCCUCCUGCCGGAAGGUGGGAUACCGAGUGAUGUUCGGUUGGAGGAGGACCGGGAGCCCGGACC [#2 Exclusion - Tryptophan B Attempt #13 (HarryS)] | 132 nM | 106 nM | 123 nM | 161 nM | 129 nM |
| UUUUGGUACUGAGGAUAUUCGAAGAAAUAUAGUGAUGUUAUAUAAGGAGGAGGAGGGAGGGAGGAAGGAGAAGGCAGAAGAGGAG [ExFMNB.G] | 289 nM | 163 nM | 235 nM | 225 nM | 266 nM |
| GGAUCCACCAGUGAUGUUGGAGAAAACUCCAAGGAUAUGACGAAAGUCAGAAGGUGGUAGACUGGACAAAGUCCGGUAGGAUCCA [FmnA10 A78] | 992 nM | 58.5 nM | 360 nM | 228 nM | 193 nM |
| UGGAGUUGACGAAAAGUCAACUCCUGGGAAGGAGCGGACGAAAGUCCAGGUAGGUCGCUCACUACCAGUGAUGUUGGUACUAAAA | 144 nM | 351 nM | 296 nM | 200 nM | 215 nM |
| UAAAACGCUUGAAUAACAAGCGAAAAUUCGCGAGGACCGGUACGGCCGCCACUCGCUAACUGCGAGUGAUGUUCGAUAAUAAAAU [Mat - Mod of OpenEnded 3 - D4] | 149 nM | 70.1 nM | 158 nM | 188 nM | 95.5 nM |
| AGACUACCACACUGUCAAUAGACAGUGAGCUAGGAUAUGCUGAUAAGCAGAAGGAGUGAUGUUCCAAGGUAGUCAAUAAAAUAAU [FmnAX 13 G29+A66] | 209 nM | 203 nM | 221 nM | 267 nM | 209 nM |
| UUUGUAUAGGGAAGGAGCGUGAAUGAUAAUGAAUAUAGUGAUGUUAUAUAGAAGAAAGAAUCACAGGUAGGUCGCCCGGAGGAGG [SSArgB.I] | 198 nM | 234 nM | 1000 nM | 456 nM | 247 nM |
| CCCGUGGGUUCGAGAGGGCUUGUGGGAAGUAAGGAUAUUUAGGGAGAAAGAAGGUACUAUAGAAUAUAGUGAUGUUAUAUAUGGG [#07 K4 FMN A Same State] | 402 nM | 435 nM | 454 nM | 347 nM | 203 nM |
| UAGCGAUGAAGUGAUACCAGAGAGUGAUGUUCUUUUUUUAUUCAGAAUACUGUCGCCUUGCUCCCUUGGCAGCACGCAGGCGCAG [theeternabot_exclusion_KL_Theo_B_18] | 206 nM | 255 nM | 258 nM | 311 nM | 171 nM |
| AGGCACGAGCAAGGAUAUCGAGUGGAGUGAUGUUCUGCCGACCCAGGACCGAAAGGUCCUGGGUCGCGAGAAGGUGCUCGUGCCU [#2 Same State - FMN A Attempt #8 (HarryS)] | 215 nM | 785 nM | 949 nM | 568 nM | 711 nM |
| CGCAAGCAGCUAGUGAUGUUGGCCGCCUUGCGAGGACCGGUACGGCCGCCACUCGGAGGCGGCUACUGAUAAACCGUCUAACGGA [KL-XTryp-A10] | 87.5 nM | 67.2 nM | 84.3 nM | 70.6 nM | 224 nM |
| GGAUAGGACAUAGGAUAUGGGCUAGGCAAGAAUAACUUGUCUAGCAAAUCCAUGAGGAGUGAUGUUCCAGAAGGGUGUCCUAUCG [FmnBX 1 U11+G75] | 194 nM | 105 nM | 99.4 nM | 111 nM | 89.9 nM |
| GCCGUAGAUUGAAGGAGCGGGAUAGAGAAAGUGAUGUUUUCUCUUUGACGGCGUCCUCGAUCCCAGGUAGGUCGCAAUCUACGGC | 76.1 nM | 75.2 nM | 81.2 nM | 73.5 nM | 70.2 nM |
